Results: the supplement of paper PMC10567573

B1: MMP1 (parent)
chain: FHGTRQYKFDPKTKRILTLQKANS
B2: SPACA3 (parent)
chain: FTSGFNAAALDYEADGSTNNGIFQ

Variants of: B1
Experiment: protein stability index of a GFP-peptide fusion (GPS, HEK-293T) (PSI 1-6); higher = more stable
Settings: c terminus: a fixed tail appended
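Further: lentivirally expressed fusions sorted by FACS into six bins by GFP to DsRed ratio, PSI derived from sequencing read proportions per bin multiplied by bin number.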

Protein stability index: each site, then its substitutions
H2: W 2.29; N 2.33; Q 2.19; L 2.36; E 3.03; D 3.55; G 2.55; F 2.34; T 2.04; V 1.91; C 1.88; P 1.68; A 1.69; K 2.57; S 2.39; R 3.04; I 2.47; Y 2.35; M 2.53
F1: E 3.91; H 3.12; A 3; C 2.95; G 3.44; I 3.12; M 3.13; T 3.4; P 3.17; V 3.18; K 3.33; D 3.65; Y 2.51; R 3.31; Q 3.32; L 3.05; W 2.35; N 3.34; S 3.43
G3: E 2.61; T 2.1; V 2.3; S 1.54; H 2.23; N 2.77; K 1.93; Q 1.67; D 2.29; C 2.63; L 1.63; F 1.58; M 1.78; I 1.78; Y 1.96; W 2.02; R 1.6; A 2.02; P 2.68
T4: I 2.13; K 2.17; H 1.68; Y 2.98; A 1.81; N 2.38; F 3.12; M 1.8; V 1.69; S 2.08; G 1.78; W 3.19; C 1.6; Q 2.95; L 1.26; E 2.29; R 2.06; D 2.43; P 1.61
R5: E 2.02; G 1.88; Q 1.83; S 1.72; A 1.8; N 1.98; P 2.32; F 1.7; I 2.21; C 1.79; L 2.2; H 2.07; D 2.38; K 2.55; M 2.3

Variants of: B2
Experiment: as above
Settings: c terminus: a fixed tail appended

Protein stability index: each site, then its substitutions
N20: Y 2.19
I22: K 1.93; E 2.4; D 2.41; T 2.06; A 2.36; Q 2.13; G 2.25; Y 2.06; H 1.95; N 2.13; M 2.5; V 1.69; F 1.69; R 2.09; S 1.86; C 1.74; L 1.74; W 2.15; P 1.94
G21: W 1.58; Y 1.75; C 1.97; L 2.06; M 1.51; K 2.33; P 2.12; Q 1.7; F 1.8; H 1.98; R 1.75; A 1.91; I 1.51; D 1.9; T 2.02; E 2.28; S 1.72; N 1.84; V 1.98
F23: V 2.11; T 2.92; M 2.55; N 2.4; E 2.28; D 2.5; G 2.54; W 1.64; L 2.08; A 2.1; Y 1.98; Q 2.36; H 2.42; I 2; P 2.42; C 1.9; S 2.2; K 2.48; R 2.16
Q24: C 1.93; P 1.99; Y 1.74; A 1.47; D 2.02; S 1.85; I 2.18; R 2.2; G 2.36; H 2.46; K 1.87; F 1.92; L 1.71; E 2.33; T 2.23; M 1.46; N 1.67; V 1.17
